Laboratory results taken from patent publication US20250075191A1, “MODIFIED BIOLUMINESCENT ENZYMES” (Light Bio, Inc., priority 2023, published 2025).

Tests used:
[1] = Luciferase luminescence in E. coli lysates after luciferin addition; assay type: biochemical; conditions: 100 μM luciferin, maximal brightness
Text: A library of amino acid substitutions was created applying mutagenesis to a gene encoding the luciferase derived from Neonothopanus nambi (SEQ ID NO: 8). pF4Ag shuttle vector (Promega) was used for gene expression in E. coli (T7 promoter-driven expression) and mammalian cells (CMV promoter-driven expression). The pF4Ag vector backbone introduces a C-terminal 3×-FLAG-HiBiT tag. Site-directed mutagenesis was used to substitute consensus amino acids at selected position in the luciferase sequence. Gene expression was performed in the E. coli strain KRX (Promega), which enables rhamnose-inducible expression of T7 RNA polymerase.
Colonies (in triplicate) were used to inoculate LB broth containing ampicillin ([…]) and cultures grown overnight in 96-well microtiter plates (20 hours, 37° C.). Cultures were diluted into fresh LB containing 0.1% rhamnose and ampicillin and grown for 3 hours at 37° C. 50 μl of the induced culture was lysed for 5 minutes at ambient temperature with a reagent consisting of 25 mM HEPES pH 7.5 and 0.3×PLB (E1941 Promega). 50 μl of lysate was combined with 50 μl luciferin (100 μM) in the lysis buffer and samples were measured for total luminescence using a GloMax®-Multi+luminometer. (Promega).

[2] = Enzyme thermostability in cleared E. coli lysates incubated at 22° C.; assay type: biochemical; conditions: then 100 μM luciferin
Method: To assess the effect on enzyme thermostability by the amino acid substitutions, lysates of transformed E. coli were prepared by sonication and cleared by centrifugation. The cleared lysates were diluted 1:100 into Tris-buffered saline with 0.01% BSA and 0.1% n-dodecyl β-D-maltoside. 100 μl of each diluted lysate were added to a 96-well PCR plate. Samples were incubated at 22° C. and at various time points aliquots were placed on ice. When all of the samples were processed, 50 μl of each was combined with 50 μl of 100 μM luciferin in Tris-buffered saline with 0.01% BSA and 0.1% n-dodecyl β-D-maltoside. Samples were immediately placed in a GloMax®-Multi+luminometer (Promega) to measure bioluminescence.

HEK293 cells = test: Hispidin hydroxylase activity in HEK293 cells co-transfected with nnLuz_v3, hispidin added, normalized to HiBiT; assay type: cell-based
Method: A library of amino acid substitutions was created applying mutagenesis to a gene encoding the hispidin hydroxylase derived from Neonothopanus nambi (SEQ ID NO: 12). This was achieved by the same method as described in Example 1. Activity was evaluated in HEK293 cells co-transfected with a gene encoding nnLuz_v3. Bioluminescence was measured as described in Example 1, except with addition of hispidin instead of luciferin.
To estimate specific activity, both luciferase activity and HiBiT were measure for each sample (see Example 2). Activity of each variant was then normalized to the expression level (i.e., luciferase bioluminescence/HiBiT signal). Substitutions at 28 positions were examined by this method.

Row | Molecule | production of bioluminescence relative to parental nnLuz [1] | enzyme stability relative to unmodified parental luciferase [2] | bioluminescence over parental enzyme nnH3H_WT, normalized to expression level (HiBiT) (HEK293 cells)
1 | T99P: nnLuz luciferase variant with single amino acid substitution T99P (protein, UniProt A0A3G9JYH7 1-267, looked up, variant T99P) Luciferase: MRINISLSSLFERLSKLSSRSIAITCGVVLASAIAFPIIRRDYQTFLEVGPSYAPQNFRGYIIVCVLSLFRQEQKGLAIYDRLPEKRRWLADLPFREGPRPSITSHIIQRQRTQLVDQEFATRELIDKVIPRVQARHTDKTFLSTSKFEFHAKAIFLLPSIPINDPLNIPSHDTVRRTKREIAHMHDYHDCTLHLALAAQDGKEVLKKGWGQRHPLAGPGVPGPPTEWTFLYAPRNEEEARVVEMIVEASIGYMTNDPAGKIVENAK | significant improvements | more stable | –
2 | T192S: nnLuz luciferase variant with single amino acid substitution T192S (protein, listed as Neonothopanus nambi) MRINISLSSLFERLSKLSSRSIAITCGVVLASAIAFPIIRRDYQTFLEVGPSYAPQNFRGYIIVCVLSLFRQEQKGLAIYDRLPEKRRWLADLPFREGTRPSITSHIIQRQRTQLVDQEFATRELIDKVIPRVQARHTDKTFLSTSKFEFHAKAIFLLPSIPINDPLNIPSHDTVRRTKREIAHMHDYHDCSLHLALAAQDGKEVLKKGWGQRHPLAGPGVPGPPTEWTFLYAPRNEEEARVVEMIVEASIGYMTNDPAGKIVENAK | significant improvements | more stable | –
3 | A199P: nnLuz luciferase variant with single amino acid substitution A199P (protein, listed as Neonothopanus nambi) MRINISLSSLFERLSKLSSRSIAITCGVVLASAIAFPIIRRDYQTFLEVGPSYAPQNFRGYIIVCVLSLFRQEQKGLAIYDRLPEKRRWLADLPFREGTRPSITSHIIQRQRTQLVDQEFATRELIDKVIPRVQARHTDKTFLSTSKFEFHAKAIFLLPSIPINDPLNIPSHDTVRRTKREIAHMHDYHDCTLHLALAPQDGKEVLKKGWGQRHPLAGPGVPGPPTEWTFLYAPRNEEEARVVEMIVEASIGYMTNDPAGKIVENAK | significant improvements | more stable | –
4 | D37E: nnH3H hispidin hydroxylase variant with single substitution D37E (protein, listed as Neonothopanus nambi) MASFENSLSVLIVGAGLGGLAAAIALRRQGHVVKIYESSSFKAELGAGLAVPPNTLRSLQQLGCNTENLNGVDNLCFTAMGYDGSVGMMNNMTDYREAYGTSWIMVHRVDLHNELMRVALDPGGLGPPATLHLNHRVTFCDVDACTVTFTNGTTQSADLIVGADGIRSTIRRFVLEEDVTVPASGIVGFRWLVQADALDPYPELDWIVKKPPLGARLISTPQNPQSGVGLADRRTIIIYACRGGTMVNVLAVHDDERDQNTADWSVPASKDDLFRVFHDYHPRFRRLLELAQDINLWQMRVVPVLKKWVNKRVCLLGDAAHASLPTLGQGFGMGLEDAVALGTLLPKGTTASQIETRLAVYEQLRKDRAEFVAAESYEEQYVPEMRGLYLRSKELRDRVMGYDIKVESEKVLETLLRSSNSA | – | – | significantly increased bioluminescence
5 | S323M: nnH3H hispidin hydroxylase variant with single substitution S323M (protein, listed as Neonothopanus nambi) MASFENSLSVLIVGAGLGGLAAAIALRRQGHVVKIYDSSSFKAELGAGLAVPPNTLRSLQQLGCNTENLNGVDNLCFTAMGYDGSVGMMNNMTDYREAYGTSWIMVHRVDLHNELMRVALDPGGLGPPATLHLNHRVTFCDVDACTVTFTNGTTQSADLIVGADGIRSTIRRFVLEEDVTVPASGIVGFRWLVQADALDPYPELDWIVKKPPLGARLISTPQNPQSGVGLADRRTIIIYACRGGTMVNVLAVHDDERDQNTADWSVPASKDDLFRVFHDYHPRFRRLLELAQDINLWQMRVVPVLKKWVNKRVCLLGDAAHAMLPTLGQGFGMGLEDAVALGTLLPKGTTASQIETRLAVYEQLRKDRAEFVAAESYEEQYVPEMRGLYLRSKELRDRVMGYDIKVESEKVLETLLRSSNSA | – | – | significantly increased bioluminescence
6 | A183P: nnH3H hispidin hydroxylase variant with single substitution A183P (protein, listed as Neonothopanus nambi) MASFENSLSVLIVGAGLGGLAAAIALRRQGHVVKIYDSSSFKAELGAGLAVPPNTLRSLQQLGCNTENLNGVDNLCFTAMGYDGSVGMMNNMTDYREAYGTSWIMVHRVDLHNELMRVALDPGGLGPPATLHLNHRVTFCDVDACTVTFTNGTTQSADLIVGADGIRSTIRRFVLEEDVTVPPSGIVGFRWLVQADALDPYPELDWIVKKPPLGARLISTPQNPQSGVGLADRRTIIIYACRGGTMVNVLAVHDDERDQNTADWSVPASKDDLFRVFHDYHPRFRRLLELAQDINLWQMRVVPVLKKWVNKRVCLLGDAAHASLPTLGQGFGMGLEDAVALGTLLPKGTTASQIETRLAVYEQLRKDRAEFVAAESYEEQYVPEMRGLYLRSKELRDRVMGYDIKVESEKVLETLLRSSNSA | – | – | significantly increased bioluminescence
7 | M385K: nnH3H hispidin hydroxylase variant with single substitution M385K (protein, listed as Neonothopanus nambi) MASFENSLSVLIVGAGLGGLAAAIALRRQGHVVKIYDSSSFKAELGAGLAVPPNTLRSLQQLGCNTENLNGVDNLCFTAMGYDGSVGMMNNMTDYREAYGTSWIMVHRVDLHNELMRVALDPGGLGPPATLHLNHRVTFCDVDACTVTFTNGTTQSADLIVGADGIRSTIRRFVLEEDVTVPASGIVGFRWLVQADALDPYPELDWIVKKPPLGARLISTPQNPQSGVGLADRRTIIIYACRGGTMVNVLAVHDDERDQNTADWSVPASKDDLFRVFHDYHPRFRRLLELAQDINLWQMRVVPVLKKWVNKRVCLLGDAAHASLPTLGQGFGMGLEDAVALGTLLPKGTTASQIETRLAVYEQLRKDRAEFVAAESYEEQYVPEKRGLYLRSKELRDRVMGYDIKVESEKVLETLLRSSNSA | – | – | significantly increased bioluminescence
8 | V181I: nnH3H hispidin hydroxylase variant with single substitution V181I (protein, listed as Neonothopanus nambi) MASFENSLSVLIVGAGLGGLAAAIALRRQGHVVKIYDSSSFKAELGAGLAVPPNTLRSLQQLGCNTENLNGVDNLCFTAMGYDGSVGMMNNMTDYREAYGTSWIMVHRVDLHNELMRVALDPGGLGPPATLHLNHRVTFCDVDACTVTFTNGTTQSADLIVGADGIRSTIRRFVLEEDVTIPASGIVGFRWLVQADALDPYPELDWIVKKPPLGARLISTPQNPQSGVGLADRRTIIIYACRGGTMVNVLAVHDDERDQNTADWSVPASKDDLFRVFHDYHPRFRRLLELAQDINLWQMRVVPVLKKWVNKRVCLLGDAAHASLPTLGQGFGMGLEDAVALGTLLPKGTTASQIETRLAVYEQLRKDRAEFVAAESYEEQYVPEMRGLYLRSKELRDRVMGYDIKVESEKVLETLLRSSNSA | – | – | significantly increased bioluminescence
